This note sets out measurements from PMC4474532.

For the assay, the target named is PERK luminal domain W165A (UniProt Q9NZJ5). As to the kind of experiment: sedimentation velocity AUC.
PERK luminal domain W165A, sequence (Q9NZJ5 105-403 W164A/Q166R): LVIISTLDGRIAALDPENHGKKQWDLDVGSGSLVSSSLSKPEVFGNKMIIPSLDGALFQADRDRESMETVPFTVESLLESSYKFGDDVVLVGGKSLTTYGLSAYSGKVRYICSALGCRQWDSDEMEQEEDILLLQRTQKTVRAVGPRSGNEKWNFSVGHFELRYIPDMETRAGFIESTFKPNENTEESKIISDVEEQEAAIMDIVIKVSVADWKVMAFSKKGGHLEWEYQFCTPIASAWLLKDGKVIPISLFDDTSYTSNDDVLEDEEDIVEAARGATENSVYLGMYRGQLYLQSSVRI

Turning to “human PERK luminal domain (residues 105–403) (from UniProt Q9NZJ5) W165A”, where the note is “parent: 0”, the other: % (change in tetramer against wild-type) is -23%. Also, the other: tetramer (relative to dimer = 1) (parent: 0.73) was 0.56.
